B1: Cullin-9, residues 2234 to 2275; numbered along this chain, Q8IWT3 (parent)
chain: KRCPSCQAPIEKNEGCLHMTCAKCNHGFCWRCLKSWKPNHKD

± gives the uncertainty stated by the source.

Experimental findings from the Human Domainome abundance scans (Beltran et al. 2025) are described below.

The variants in this data set derive from B1. In words: abundance fitness (aPCA) (normalised: wild type 0, dead -1); higher = more abundant; growth selection in yeast, the domain comes from the species named. Conditions: Homo sapiens.
On to KRCPSCQAPIEKNEGCLHMTCAKCNSGFCWRCLKSWKPNHKD, for which the abundance fitness is 0.055 ± 0.12.

Turning to KRCPSCQAPIEKNEGCLHMTCAKCNMGFCWRCLKSWKPNHKD, the abundance fitness is -0.109 ± 0.12.

Take KRCPSCQAPIEKNEGCLHMTCAKCNTGFCWRCLKSWKPNHKD: the abundance fitness is -0.226 ± 0.16.

Take KRCPSCQAPIEKNEGCLHMTCAKCNLGFCWRCLKSWKPNHKD: the abundance fitness is -0.419 ± 0.094.

Turning to KRCPSCQAPIEKNEGCLHMTCAKCNCGFCWRCLKSWKPNHKD, the abundance fitness was -0.628 ± 0.15.

KRCPSCQAPIEKNEGCLHMTCAKCNYGFCWRCLKSWKPNHKD: the abundance fitness was -0.1 ± 0.12.

Consider KRCPSCQAPIEKNEGCLHMTCAKCNPGFCWRCLKSWKPNHKD, for which the abundance fitness is -0.154 ± 0.098.

As for KRCPSCQAPIEKNEGCLHMTCAKCNIGFCWRCLKSWKPNHKD, the abundance fitness was -0.367 ± 0.2.

Consider KRCPSCQAPIEKNEGCLHMTCAKCNGGFCWRCLKSWKPNHKD, for which the abundance fitness is -0.02 ± 0.075.

As for KRCPSCQAPIEKNEGCLHMTCAKCNVGFCWRCLKSWKPNHKD, the abundance fitness was -0.266 ± 0.081.

As to KRCPSCQAPIEKNEGCLHMTCAKCNAGFCWRCLKSWKPNHKD, the abundance fitness was -0.022 ± 0.089.

As to KRCPSCQAPIEKNEGCLHMTCAKCNNGFCWRCLKSWKPNHKD, the abundance fitness was -0.287 ± 0.16.

Regarding KRCPSCQAPIEKNEGCLHMTCAKCNFGFCWRCLKSWKPNHKD, the abundance fitness is 0.146 ± 0.2.

KRCPSCQAPIEKNEGCLHMTCAKCNEGFCWRCLKSWKPNHKD: the abundance fitness was -0.091 ± 0.093.

In the case of KRCPSCQAPIEKNEGCLHMTCAKCNQGFCWRCLKSWKPNHKD, the abundance fitness was -0.17 ± 0.11.

With KRCPSCQAPIEKNEGCLHMTCAKCNRGFCWRCLKSWKPNHKD, the abundance fitness is -0.213 ± 0.078.

KRCPSCQAPIEKNEGCLHMTCAKCNDGFCWRCLKSWKPNHKD: the abundance fitness came to 0.063 ± 0.11.

For the variant KRCPSCQAPIEKNEGCLHMTCAKCNWGFCWRCLKSWKPNHKD, the abundance fitness is -0.541 ± 0.14.

Take KRCPSCQAPIEKNEGCLHMTCAKCNKGFCWRCLKSWKPNHKD: the abundance fitness is -0.314 ± 0.16.

In the case of KRCPSCQAPIEKNEGCLHMWCAKCNHGFCWRCLKSWKPNHKD, the abundance fitness was -0.172 ± 0.093.

In the case of KRCPSCQAPIEKNEGCLHMSCAKCNHGFCWRCLKSWKPNHKD, the abundance fitness was -0.304 ± 0.097.

Consider KRCPSCQAPIEKNEGCLHMYCAKCNHGFCWRCLKSWKPNHKD, for which the abundance fitness came to 0.316 ± 0.2.

KRCPSCQAPIEKNEGCLHMQCAKCNHGFCWRCLKSWKPNHKD: the abundance fitness is -0.029 ± 0.1.

In the case of KRCPSCQAPIEKNEGCLHMPCAKCNHGFCWRCLKSWKPNHKD, the abundance fitness was -0.103 ± 0.1.

In the case of KRCPSCQAPIEKNEGCLHMRCAKCNHGFCWRCLKSWKPNHKD, the abundance fitness is -0.143 ± 0.077.

As to KRCPSCQAPIEKNEGCLHMTCVKCNHGFCWRCLKSWKPNHKD, the abundance fitness was -0.306 ± 0.12.

In the case of KRCPSCQAPIEKNEGCLHMTCEKCNHGFCWRCLKSWKPNHKD, the abundance fitness came to 0.029 ± 0.11.

Regarding KRCPSCQAPIEKNEGCLHMTCIKCNHGFCWRCLKSWKPNHKD, the abundance fitness is -0.025 ± 0.14.

In the case of KRCPSCQAPIEKNEGCLHMTCWKCNHGFCWRCLKSWKPNHKD, the abundance fitness is -0.096 ± 0.11.

On to KRCPSCQAPIEKNEGCLHMTCPKCNHGFCWRCLKSWKPNHKD, for which the abundance fitness was found to be 0.149 ± 0.13.

Turning to KRCPSCQAPIEKNEGCLHMTCKKCNHGFCWRCLKSWKPNHKD, the abundance fitness was -0.333 ± 0.17.

On to KRCPSCQAPIEKNEGCLHMTCGKCNHGFCWRCLKSWKPNHKD, for which the abundance fitness is -0.254 ± 0.11.

Regarding KRCPSCQAPIEKNEGCLHMTCMKCNHGFCWRCLKSWKPNHKD, the abundance fitness is 0.082 ± 0.16.

On to KRCPSCQAPIEKNEGCLHMTCLKCNHGFCWRCLKSWKPNHKD, for which the abundance fitness is -0.282 ± 0.13.

For KRCPSCQAPIEKNEGCLHMTCYKCNHGFCWRCLKSWKPNHKD, the abundance fitness stood at 0.082 ± 0.21.

In the case of KRCPSCQAPIEKNEGCLHMTCDKCNHGFCWRCLKSWKPNHKD, the abundance fitness was 0.229 ± 0.19.

On to KRCPSCQAPIEKNEGCLHMTCRKCNHGFCWRCLKSWKPNHKD, for which the abundance fitness was -0.242 ± 0.1.

Consider KRCPSCQAPIEKNEGCLHMTCSKCNHGFCWRCLKSWKPNHKD, for which the abundance fitness is -0.202 ± 0.12.

For the variant KRCPSCQAPIEKNEGCLHMTCAKCNHGHCWRCLKSWKPNHKD, the abundance fitness worked out at 0.322 ± 0.16.

With KRCPSCQAPIEKNEGCLHMTCAKCNHGACWRCLKSWKPNHKD, the abundance fitness was -0.173 ± 0.084.

On to KRCPSCQAPIEKNEGCLHMTCAKCNHGDCWRCLKSWKPNHKD, for which the abundance fitness amounted to 0.101 ± 0.17.

Regarding KRCPSCQAPIEKNEGCLHMTCAKCNHGCCWRCLKSWKPNHKD, the abundance fitness was -0.189 ± 0.14.

For KRCPSCQAPIEKNEGCLHMTCAKCNHGECWRCLKSWKPNHKD, the abundance fitness was -0.074 ± 0.089.

For the variant KRCPSCQAPIEKNEGCLHMTCAKWNHGFCWRCLKSWKPNHKD, the abundance fitness was -0.784 ± 0.11.

On to KRCPSCQAPIEKNEGCLHMTCAKMNHGFCWRCLKSWKPNHKD, for which the abundance fitness was -0.574 ± 0.2.

Regarding KRCPSCQAPIEKNEGCLHMTCAKRNHGFCWRCLKSWKPNHKD, the abundance fitness was -0.594 ± 0.086.

KRCPSCQAPIEKNEGCLHMTCAKKNHGFCWRCLKSWKPNHKD: the abundance fitness is -0.379 ± 0.13.

Regarding KRCPSCQAPIEKNEGCLHMTCAKSNHGFCWRCLKSWKPNHKD, the abundance fitness is -0.384 ± 0.12.

Take KRCPSCQAPIEKNEGCLHMTCAKFNHGFCWRCLKSWKPNHKD: the abundance fitness is -0.534 ± 0.21.

Take KRCPSCQAPIEKNEGCLHMTCAKTNHGFCWRCLKSWKPNHKD: the abundance fitness is -0.735 ± 0.19.

KRCPSCQAPIEKNEGCLHMTCAKHNHGFCWRCLKSWKPNHKD: the abundance fitness was -0.382 ± 0.33.

Take KRCPSCQAPIEKNEGCLHMTCAKDNHGFCWRCLKSWKPNHKD: the abundance fitness was -0.045 ± 0.14.

Regarding KRCPSCQAPIEKNEGCLHMTCAKGNHGFCWRCLKSWKPNHKD, the abundance fitness is -0.268 ± 0.074.

On to KRCPSCQAPIEKNEGCLHMTCAKENHGFCWRCLKSWKPNHKD, for which the abundance fitness was -0.129 ± 0.088.

In the case of KRCPSCQAPIEKNEGCLHMTCAKANHGFCWRCLKSWKPNHKD, the abundance fitness is -0.45 ± 0.094.

In the case of KRCPSCQAPIEKNEGCLHMTCAKLNHGFCWRCLKSWKPNHKD, the abundance fitness was -0.454 ± 0.093.

With KRCPSCQAPIEKNEGCLHMTCAKPNHGFCWRCLKSWKPNHKD, the abundance fitness was -0.249 ± 0.1.

KRCPSCQAPIEKNEGCLHMTCAHCNHGFCWRCLKSWKPNHKD: the abundance fitness is -0.223 ± 0.19.

For the variant KRCPSCQAPIEKNEGCLHMTCAMCNHGFCWRCLKSWKPNHKD, the abundance fitness is -0.323 ± 0.14.

Regarding KRCPSCQAPIEKNEGCLHMTCASCNHGFCWRCLKSWKPNHKD, the abundance fitness was -0.174 ± 0.1.
